The target of assay [1] is taxol-stabilized microtubules made from PC tubulin. The assay can be described thus: microtubule pelleting assay, after 35 kDal kinase, against unphosphorylated htau23.
Assay [2] shares this target. The assay can be described thus: microtubule pelleting assay, after 35 kDal kinase.
The target is the same in assay [3]. The assay can be described thus: microtubule pelleting assay, gel densitometry, 30 µM polymerized tubulin.
The target is the same in assay [4]. The assay can be described thus: microtubule pelleting assay, brain extract phosphorylation.
The target is the same in assay [5]. The assay can be described thus: microtubule pelleting assay, microtubules from 10 µM tubulin with 20 µM taxol.
The target is the same in assay [6]. The assay can be described thus: microtubule pelleting assay.

What is called Kd is the constant that tells how readily two partners part at equilibrium. Substance “htau23 phosphorylated by the 35 kDal kinase (from UniProt P10636 1-352)” registered a reduction in stoichiometry upon phosphorylation (Dn) (tau/tubulin dimer) in assay [1] of 0.28. For the same substance, in assay [2], the dissociation constant (Kd) was 8.8 µM and the stoichiometry n (tau/tubulin dimer) (tau/tubulin dimer) came out at 0.21. As for “htau23 mutant Ser262-Ala phosphorylated by the 35 kDal kinase (from UniProt P10636 1-352)”, the reduction in stoichiometry upon phosphorylation (Dn) (tau/tubulin dimer) in assay [1] worked out at 0.05. Besides, in assay [2], the Kd was found to be 11.6 µM and the stoichiometry n (tau/tubulin dimer) (tau/tubulin dimer) is 0.44. In assay [3], “htau23 phosphorylated with the brain extract kinase activity (full, stage 3, 24 hours) (from UniProt P10636 1-352)” returned an equilibrium dissociation constant (Kd) of 4.9 µM and a stoichiometry n (tau/tubulin dimer) (tau/tubulin dimer) of 0.16. This substance also came in with a Dn (difference in stoichiometry upon phosphorylation) (tau/tubulin dimer) in assay [4] of 0.33. For the substance “htau23 phosphorylated with GSK3 (from UniProt P10636 1-352)”, the stoichiometry at saturation (tau per tubulin dimer) (per tubulin dimer) in assay [5] stood at 0.6.

“S404-A mutant of htau34 after 90 min of phosphorylation with the brain extract kinase activity (from UniProt P10636 1-412)”: the fold decrease in stoichiometry upon phosphorylation in assay [6] was 2 fold. In assay [6], “htau34 phosphorylated with the brain extract kinase activity (24 hours) (from UniProt P10636 1-412)” returned a fold reduction in binding capacity against unphosphorylated htau34 of 3 fold. Substance “htau34 phosphorylated for 90 min with the brain extract kinase activity (stage 1) (from UniProt P10636 1-412)” had a fold decrease in stoichiometry upon phosphorylation in assay [6] of 3 fold. In assay [3], “bacterially expressed human tau isoform htau34, unphosphorylated (from UniProt P10636 1-412)” showed a Kd of 1 to 2 µM. For the substance “htau23 mutant Ser262-Ala phosphorylated with brain extract (from UniProt P10636 1-352)”, in assay [3], the Kd amounted to 5.3 µM and the stoichiometry n (tau/tubulin dimer) (tau/tubulin dimer) is 0.45. This substance displayed a Dn (difference in stoichiometry upon phosphorylation) (tau/tubulin dimer) in assay [4] of 0.04.

For the origin of these results see patent US20090162336A1.
